The source of these data is patent JP2019218309A (dated 2019).

No end group written: not given here.

The target in assay [1] is T1, GIP(3−42) (inactive GIP).
T1 construct: also called 非活性型GIP; 不活性型のGIP(3−42)
T1 peptide: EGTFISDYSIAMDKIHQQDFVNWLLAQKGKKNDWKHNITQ
Nature of the assay: sandwich ELISA: anti-total GIP monoclonal antibody as capture, biotinylated m1 at 1 ug/mL as detection.

The target of assay [2] is T2, 測定用抗原(1): PEG化GIP(1−15) (PEGylated N-terminal 15 amino acids of active GIP) (also: PEGylated, site not given here).
T2 construct: also called GIP(1-15)
T2 peptide: YAEGTFISDYSIAMD
As to the kind of experiment: ELISA, immobilised PEGylated peptide, hybridoma culture supernatant. In general terms: In an ELISA, binding on a coated surface is turned into a signal by an enzyme label.

Assay [3] concerns the target T3, 測定用抗原(2): PEG化GIP(3−15) (PEGylated N-terminal 13 amino acids of inactive GIP) (also: PEGylated, site not given here).
T3 construct: also called GIP(3-15)
T3 peptide: EGTFISDYSIAMD
The description is as above.

Assay [4] has as its target T4, GIP(1−42) (active GIP).
T4 construct: a Human (total) GIP ELISA kit was used; also called 活性型GIP; GIP(1-42)
T4 peptide: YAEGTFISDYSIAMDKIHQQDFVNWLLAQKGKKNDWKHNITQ
As to the kind of experiment: sandwich ELISA: anti-total GIP monoclonal antibody as capture, biotinylated m1 at 1 ug/mL as detection, GIP at 8.2-2000 pg/mL.

B1: ハイブリドーマ9B9H5−B9株から産生されるモノクローナル抗体 (anti-active GIP monoclonal antibody of hybridoma 9B9H5-B9) (antibody, V domains shown)
VH: QVQLQQPGAELVKPGASVKLSCKASGYTFTSFWMHWVIQRPGQGLEWIGEMNPSDGRTHFNEKFKTKATLTIDTSSNTAYMELNSLTSEDSAVYYCARRMEDWGQGTLVTVSA
VL: DIKMTQSPSSMYASLGERVTITCKASQDINSYLGWFQQKPGKSPKTLIYGANRLVDGVPSRFSGSGSGQDYSLTISSLEYDDMGIYYCLQYDEFPLTFGAGTKLELKR
notes: Mouse (BALB/c) hybridoma monoclonal antibody, purified on Protein A; also called 抗活性型GIP抗体; 抗活性型GIPモノクローナル抗体
Regarding B1, the binding result is recorded as “no binding” in assay [1], “binds” in assay [2], “no binding” in assay [3] and “binds” in assay [4].
